The values that follow come from US20240239891A1 (Stanford University, published 2024).

The target in experiment [1] is T1, extracellular domain (ECD) of human or mouse RNF43 (human or mouse).
T1 construct: extracellular domain; also called RNF43 ECD
In words: SPR (Biacore), nanobody on ECD.

The target in experiment [2] is T2, mRNF43 ECD.
T2 construct: The mouse half of m18, which leaves the species open; also called extracellular domain of mouse RNF43
T2 chain: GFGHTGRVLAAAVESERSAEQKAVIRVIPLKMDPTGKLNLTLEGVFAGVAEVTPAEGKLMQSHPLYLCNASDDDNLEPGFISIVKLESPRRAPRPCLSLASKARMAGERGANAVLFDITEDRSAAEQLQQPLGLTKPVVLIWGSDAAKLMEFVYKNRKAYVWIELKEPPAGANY
As to the kind of experiment: SPR (Biacore), ligand mRNF43 ECD, analyte RNF43 -A4.

Experiment [3] addresses T3, extracellular domain (ECD) of human GODZILLA (RNF167) (human, UniProt Q9H6Y7 25-173, limits assumed).
T3 construct: extracellular domain; also called GODZILLA ECD
In words: SPR (Biacore), titration at equilibrium, nanobody on ECD.

The target of experiment [4] is T4, extracellular domain (ECD) of human GRAIL (RNF128) (human, UniProt Q8TEB7 39-207, limits assumed).
T4 construct: extracellular domain; also called GRAIL ECD
T4 sequence (looked up): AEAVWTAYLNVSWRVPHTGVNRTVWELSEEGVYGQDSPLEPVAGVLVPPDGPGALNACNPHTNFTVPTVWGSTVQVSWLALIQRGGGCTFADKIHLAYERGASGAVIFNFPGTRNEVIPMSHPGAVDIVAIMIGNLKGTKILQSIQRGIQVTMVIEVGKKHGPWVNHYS
As to the kind of experiment: SPR (Biacore), ligand hRNF128 ECD (GRAIL), analyte GODZILLA-A5 [CONT. 3].

The target in experiment [5] is GODZILLA (RNF167) on Ba/F3 cells (mouse, UniProt Q91XF4). In words: flow cytometry, surface staining of Ba/F3 cells (mouse by legend paragraph 54, sheet prints HUMAN) with streptavidin-APC tetramerized nanobody, titration up to 200 nM; control BIOTIN.

B1: RNF43 VHH of SEQ ID NO: 10 (VHH)
VHH: QVQLQESGGGLVQAGGSLRLSCAASGTIFDDLLMGWYRQAPGKERELVAAIGAGATTNYADSVKGRFTISRDNAKNTVYLQMNSLKPEDTAVYYCAAWWLYYKGDWALYLYWGQGTQVTVSS
notes: also called RNF43 nanobody
In experiment [1], B1 yielded a Kd of 315 nM. Further, the binding result in experiment [2] is on record as “no binding (tested: highest concentration not legible)”.

B2: GODZILLA (RNF167) VHH of SEQ ID NO: 9 (VHH)
VHH: QVQLQESGGGLVQAGGSLRLSCAASGSIFRLWYMGWYRQAPGKEREFVASIGIGATTNYADSVKGRFTISRDNAKNTVYLQMNSLKPEDTAVYYCAVFGWAYSGYHDDFLYWGQGTQVTVSS
notes: also called A5; GODZILLA-A5
In experiment [3], B2 showed a Kd of 3 nM. In addition, the binding result in experiment [4] is listed as “no binding (tested: 1000 (unit not printed))”; in experiment [5], “binds”.
